Results from patent US11419945B2, “Antigen binding proteins” (Glaxo Group Limited, priority 2011, dated 2022).

T1: ARH77-hBCMA 10B5 BCMA expressing transfectant cells (Homo sapiens, UniProt Q02223)
T1 construct: expressed in transfected cells; host or cells: ARH77 (clone 10B5)
T1 sequence (Q02223 1-184): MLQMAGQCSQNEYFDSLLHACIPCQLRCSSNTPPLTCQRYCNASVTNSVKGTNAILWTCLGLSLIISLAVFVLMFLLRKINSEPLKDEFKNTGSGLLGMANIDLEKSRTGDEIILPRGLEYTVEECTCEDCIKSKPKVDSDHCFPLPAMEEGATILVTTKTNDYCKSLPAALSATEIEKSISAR

T2: Human commercial BCMA (Homo sapiens, UniProt Q02223)
T2 construct: purchased US Biological B0410
T2 sequence (Q02223 1-184): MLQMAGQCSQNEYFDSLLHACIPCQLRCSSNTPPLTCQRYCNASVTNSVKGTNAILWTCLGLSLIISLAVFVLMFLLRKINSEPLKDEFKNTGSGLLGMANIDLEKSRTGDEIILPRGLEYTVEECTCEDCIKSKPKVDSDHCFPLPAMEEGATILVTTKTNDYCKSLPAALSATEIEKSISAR


Assays:
[1] = system: U266; assay: ADCC of afucosylated J6M0, U266; format: cell-based, human; details: PBMC E:T 50:1, 18 hours, one value per assay/donor (A-K)
Description: (§1) FIG. 18: ADCC dose response curves of CA8 J6M0 Potelligent against a panel of 5 multiple myeloma lines—Human PBMC were incubated with multiple myeloma target cells in the presence of varying concentrations of CA8 J6M0 potelligent antibody at an E:T ratio of 50:1 for 18 hours. The percentage of target cells remaining in the effector plus target mixture was then measured by FACS using a fluorescently labelled anti-CD138 antibody to detect the target cells and the percent cytotoxicity calculated. Example dose response curves for CA8 J6M0 potelligent against the five multiple myeloma cell lines tested—[…], RPMI8226, JJN-3, OPM-2, and U266. Each data point is from a singlicate value.
(§2) Human PBMC were incubated with multiple myeloma target cells at an E:T ratio of 50:1 in presence of varying concentrations of afucosylated (Potelligent) J6M0 The percentage of target cells remaining in the effector+target cell mixture after 18 hours was measured by FACS using a fluorescently labelled anti-CD138 antibody to detect the target cells and the percent lysis calculated. This is representative of several experiments.

[2] = system: OPM-2; assay: ADCC of afucosylated J6M0, OPM-2; format: cell-based, human; details: OPM-2, ADCC, PBMC E:T 50:1, 18 hours; one value per assay/donor (A-K)
Description: as §1, §2

[3] = system: five multiple myeloma target cell lines; assay: ADCC of afucosylated J6M0 on MM cell lines (panel); format: cell-based; details: human PBMC, E:T ratio 50:1, 18 hours
Description: as §1, §2

[4] = system: Europium labelled ARH77-10B5 cells; assay: ADCC potency of conjugated, afucosylated J6M0; format: cell-based, human; details: PBMC: target cell ratio 50:1, up to 10000 ng/ml, 2 hours
Description: FIG. 17: ADCC activity of ADC J6M0 molecules—Figure showing ADCC assay on J6M0 antibodies using ARH77 BCMA expressing target cells. Human PBMC were incubated with europium labelled ARH77 BCMA transfected target cells in the presence of a range of concentrations of J6M0 WT and potelligent BCMA antibodies conjugated to MMAE, MMAF, or unconjugated Europium release was monitored on the Victor 2 1420 multilabel reader.
Afucosylated J6M0 conjugated to MMAE or MMAF was tested in ADCC assays using BCMA transfectants to ensure that its ADCC activity was not compromised by the conjugation. Europium labelled ARH77-10B5 cells were incubated with various J6M0 WT and Potelligent BCMA antibodies at concentrations up to 10000 ng/ml for 30 minutes prior to the addition of PBMCs (PBMC: target cell ratio 50:1). Two hours later an aliquot of cell media was sampled and mixed with enhancement solution. After 30 minutes on a plate shaker, europium release was monitored on the Victor 2 1420 multi-label reader. Datapoints represent means of triplicate values.

[5] = system: H929 cells; assay: FACS binding of humanised CA8 to H929 cells; parameters: species or system human; details: varying concentrations, 20 minutes at RT
Description: (§3) ARH77-hBCMA 10B5 BCMA expressing transfectant cells or H929 cells were stained with either chimeric CA8 or humanised variants of CA8 designated J6M0, J6M1, J6M2, J9M0, J9M1, J9M2 at varying concentrations for 20 minutes at RT. Cells were then washed with FACS buffer (PBS+0.5% BSA+0.1% sodium azide) to remove unbound antibody. Cells were incubated with a secondary PE labelled anti-human IgG antibody for 15 minutes at RT and then washed with FACS buffer to remove unbound antibody. Cells were analysed by FACS and mean fluorescence intensity (MFI) values measured to determine binding.

[6] = target: T1, ARH77-hBCMA 10B5 BCMA expressing transfectant cells; assay: FACS binding of humanised CA8 to BCMA transfected cells; details: varying concentrations, 20 minutes at RT
Description: as §3

[7] = target: T2, Human commercial BCMA; assay: BIAcore analysis J7 to J9 series, human commercial BCMA; format: binding; details: 37° C.
Description: Protein A was immobilised on a CMS chip (GE Healthcare, Cat No: BR-1005-30) by primary amine coupling and this surface was then used to capture the antibody molecules. Recombinant human BCMA (US Biological, B0410) was used as analyte at 256 nM, 64 nM, 16 nM, 4 nM and 1 nM. Regeneration of the capture surface was carried out using 50 mM NaOH. All binding curves were double referenced with a buffer injection (i.e. 0 nM) and the data was fitted to the using the 1:1 model inherent to T100 evaluation software. The run was carried out at 37° C., using HBS-EP as the running buffer.

[8] = target: T3, Human in house BCMA (Homo sapiens, UniProt Q02223); assay: ProteOn analysis of CA8 chimeric and humanised constructs, human in house BCMA; format: binding; details: Run 2, ProteOn, recombinant human BCMA; no affinity values obtained
T3 construct: CD33 signal peptide (N); TEV site (internal); Fc (C); made in house
T3 sequence (Q02223 with tags, fused parts or gaps limits assumed): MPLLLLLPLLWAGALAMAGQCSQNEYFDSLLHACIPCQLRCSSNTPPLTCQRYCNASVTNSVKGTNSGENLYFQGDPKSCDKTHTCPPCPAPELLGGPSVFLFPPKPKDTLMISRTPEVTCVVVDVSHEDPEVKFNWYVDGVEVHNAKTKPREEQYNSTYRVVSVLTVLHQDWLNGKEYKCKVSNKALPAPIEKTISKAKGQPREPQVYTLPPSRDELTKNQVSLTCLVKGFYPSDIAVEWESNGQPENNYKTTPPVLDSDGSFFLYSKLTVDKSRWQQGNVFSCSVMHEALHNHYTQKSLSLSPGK
Description: The initial screen of CA8 chimeric and humanised variants was carried out on the ProteOn XPR36 (Biorad). The method was as follows; Protein A was immobilised on a GLC chip (Biorad, Cat No: 176-5011) by primary amine coupling, CA8 variants were then captured on this surface and recombinant human BCMA (in house or commercial US Biological, B0410) materials (run 2 only)) passed over at 256, 64, 16, 4, 1 nM with a 0 nM injection (i.e. buffer alone) used to double reference the binding curves, the buffer used is the HBS-EP buffer. 50 mM NaOH was used to regenerate the capture surface. The data was fitted to the 1:1 model using the analysis software inherent to the ProteOn XPR36. Run 1 corresponds to the first screen of humanised CA8 variants (JO to J5 series) and run 2 to the second screen of humanised CA8 variants (J5 to J9 series). Both runs were carried out at 25° C.

[9] = system: Cyno in house BCMA; assay: BIAcore analysis J7 to J9 series, cyno in house BCMA; format: binding; details: 37° C.
Sequence of Cyno in house BCMA (as listed by the source): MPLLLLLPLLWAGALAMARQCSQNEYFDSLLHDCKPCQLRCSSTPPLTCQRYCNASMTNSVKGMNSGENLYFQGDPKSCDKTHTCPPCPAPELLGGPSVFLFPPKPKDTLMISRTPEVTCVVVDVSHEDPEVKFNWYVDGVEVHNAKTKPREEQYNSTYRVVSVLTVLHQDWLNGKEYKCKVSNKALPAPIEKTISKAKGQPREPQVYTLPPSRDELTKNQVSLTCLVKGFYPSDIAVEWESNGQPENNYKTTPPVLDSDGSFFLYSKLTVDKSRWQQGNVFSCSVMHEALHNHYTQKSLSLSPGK

Molecule | EC50 [1] | EC50 [2] | ADCC activity [3] | ADCC potency (europium release) [4] | dose dependent binding to H929 cells by FACS (MFI) [5] | dose dependent binding to ARH77-hBCMA 10B5 cells by FACS (MFI) [6] | KD [7] | off rate [8] | ka ([9]; in M-1s-1 (unit assumed)) | kd ([9]; in s-1 (unit assumed))
J6M0 Potelligent: humanised CA8 version J6M0 in afucosylated (Potelligent) form | 9.04 ng/mL | 4.15 ng/mL | showed ADCC activity against all five multiple myeloma target cell lines tested | lower EC50 and higher maximal lysis |  |  |  |  |  | 
CA8 humanised J9M2: humanised CA8 anti-BCMA antibody, VH J9 (SEQ ID NO:29) + VL M2 (SEQ ID NO:35) (antibody, V domains shown, Humansed antibody sequence) VH: QVQLVQSGAEVKKPGSSVKVSCKGSGYTFTNYWMHWVRQAPGQGLEWIGATYRGHSDTYYNQKFKGRATLTADTSTSTAYMELSSLRSEDTAVYYCTRGAIYDGYDVLDNWGQGTLVTVSS VL: DIQLTQSPSSLSASVGDRVTITCSASQDISNYLNWYQQKPGKAPELVIYYTSNLHSGVPSRFSGSGSGTDYTLTISSLQPEDFATYYCQQYRKLPWTFGQGTKLEIKR |  |  |  |  | all antibodies tested apart from J9M2 bound | all antibodies tested apart from J9M2 bound | No | beyond the sensitivity of the assay | 4.88E+05 | 2.52E−04
